Residue numbers refer to the chain shown, from its start.
B1: 18G9-H11 Fab (Fab, V domains shown)
VH: EVQLVETGGSLVQPGKSLKLTCATSGFTFSNAWIQWVRQSPEKQLEWVAQIKAKSNNYATYYAESVKGRFTISRDDSKSSVYLQMNSLKEEDTALYYCTWRHYYSSHTMDAWGQGTLVTVSS
VL: DVVMTQTPVSLSVSLGGQVSISCRSSQSLVHNNGNTYLSWYLQKPGQSPQLLIYKVSNRFSGISDRFSGSGSGTDFTLKISRVAPTDLGVYYCGQGSQYPFTFGAGTKLELK
B2: 1E6-C9 Fab (Fab, V domains shown)
VH: EVQLVETGGSLVQPGKSLKLTCATSGFTFSYAWMHWVRQSPDKQLQWVAQIKAKSNNYATYYAESVEGRFTISRDDSKSSVYLQMNSLKEEDTAIYYCRGVYYGLLGLDAWGQGTSVTVSS
VL: B1 VL with S14R, Y41F, G71A, A84E, T86D, S97T, Q98H, A105S, L111I
notes: also called 1E6-B8; 1E6-B8/B9-C9-Fab
B3: 13H2-C2 Fab (Fab, V domains shown)
VH: EEELVETGGSLVQPGKSLKLTCATSGFTFSNAWMHWVRQSPDKQLEWVAQIKAKSNNYATYYAESVKGRFTISRDDSKSSVYLQMNNLKEEDTAIYYCRYVHYGLAPMDAWGQGTSVTVSS
VL: B1 VL with P45A, T77I, A84E, T86D, Y91F, S97T
notes: also called 13H2-C3
B4: 8B11-B7 anti-CD123 rat IgG (hybridoma supernatant) (antibody, V domains shown)
VH: QVQLQESGPTLVNPGDSVKMSCKASGYTFTDHIIHWVKQSHGKSLEWIGYINPYSGGANYNGKFKSKATLTIDKSSSTAYMEFSRLTSGDSAIYYCALNYGSYYAMDAWGQGTSVTVSS
VL: DIQMTQSPASLSASLGETVTIECRTSKDIYSNLAWFQQEPGNSPQLLIYDASNLADGVPSRFSGSGSGTQYSLQINNLQSEDVASYFCHQYNNYPYTFGTGTKLELK
notes: rat IgG; also called BFX - 8B11
B5: 9F6-G3 anti-CD123 rat IgG (hybridoma supernatant) (antibody, V domains shown)
VH: B4 VH with N13K, H32Y, G56D, A58T, G62E, I72V, S76T, G89E, Y95F
VL: B4 VL with T25P, K27E, Y30H, L33V, F36Y, E39K, Q74K, N77S, N93I, T100S
notes: rat IgG; also called BFX - 9F6
B6: 9B8-G6 anti-CD123 rat IgG (hybridoma supernatant) (antibody, V domains shown)
VH: EVKLQESGPSLVQSSQTLSLTCTVSGFSLTSYHIHWVRQPPGKGLEWMGVMWSDGDTSYSSALKSRLSISRDTSQSQVFLKMNSLQTEDTATYYCARGDYSSYIYLWFAYWGQGTLVTVSS
VL: DIVMTQSPSSLAVSAGETVTINCKSSQSFLSSGDERNYVAWYQHKPGQSPKLLIYWASTRHSGVPDRFIGSGSGTDFTLTISSVQAEDLAIYYCQQYYDTPLTFGSGTKLEIK
notes: rat IgG; also called BFX - 9B8
B7: 9D7-C8 anti-CD123 rat IgG (hybridoma supernatant) (antibody, V domains shown)
VH: B6 VH with P40T, S60N, D99Y, I104L
VL: B6 VL with A15E, E35G, R36K, H44Y, H61Q, S83T
notes: rat IgG; also called BFX - 9D7

molecular target: T1, human CD3ε/δ-Fc fusion protein (soluble recombinant CD3ε/δ complex) (human, UniProt P04234 22-105); assay: SPR, CD3-Fc captured, Fab 100 nM
T1 construct: also called huCD3ε/δ; huCD3; not shown: hinge, CH2, CH3 of human IgG with tag
T1 sequence (chain, as listed by the source mutant, chain 1 of 2): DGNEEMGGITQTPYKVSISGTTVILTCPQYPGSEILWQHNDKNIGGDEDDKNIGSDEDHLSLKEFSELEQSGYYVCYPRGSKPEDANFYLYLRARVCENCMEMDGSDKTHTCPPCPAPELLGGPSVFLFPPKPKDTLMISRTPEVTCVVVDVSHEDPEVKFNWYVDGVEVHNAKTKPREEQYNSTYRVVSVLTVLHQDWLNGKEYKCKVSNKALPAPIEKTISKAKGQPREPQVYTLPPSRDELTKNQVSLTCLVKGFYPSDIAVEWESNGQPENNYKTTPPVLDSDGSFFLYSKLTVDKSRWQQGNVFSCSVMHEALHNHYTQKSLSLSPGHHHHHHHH
T1 sequence (P04234 22-105, stated change not applied, chain 2 of 2): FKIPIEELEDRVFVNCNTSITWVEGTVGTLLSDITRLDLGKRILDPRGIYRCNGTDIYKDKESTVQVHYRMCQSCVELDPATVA
Protocol: (§1) Binding was tested by SPR using a BIAcore3000 instrument run with HBS-EP buffer. Recombinant huCD3 proteins (ε/δ (PB01226), ε/γ (PB01225)) were captured at 10 μl/min via Fc-tag by anti-human Fc capture antibody MAB1302 (Millipore) immobilized on a CM5 sensor chip. Anti-CD3 Fabs were used as analytes at 100 nM with association and dissociation times of 240 sec and 300 sec, respectively at 30 μl/min. After each cycle the surfaces were regenerated by a 2 min pulse of 10 mM glycine buffer pH2.5.

| RU of Fab binding at 100 nM | Binder |
| --- | --- |
| 10 RU | B1 |
| 10 RU | B2 |
| 9 RU | B3 |

molecular target: recombinant huCD3ε/γ protein with Fc-tag (PB01225) (human, UniProt P07766 23-126; P09693 23-116); assay: SPR, CD3-Fc captured, Fab 100 nM
Protocol: as §1

| RU of Fab binding at 100 nM | Binder |
| --- | --- |
| 3 RU | B1 |
| 7 RU | B2 |
| 6 RU | B3 |

molecular target: T2, human CD3ε expressed alone on HEK293F cells (human, UniProt P07766 23-207); assay: flow cytometry, transfected HEK293F
T2 construct: also called huCD3ε
Protocol: (§2) To analyze binding of antibodies to human CD3ε and human CD3δ expressed on the surface of cells, HEK293F cells were transfected with both constructs either alone or in co-transfection and signals were measured by flow cytometry. For transfection procedure FuGENE HD Transfection Reagent (Promega, #E2311) was used according to manufacturer's protocol.
(§3) Antibodies for staining were seeded at 1 μg in 50 μl per well Stain Buffer with FBS (BD Pharmingen) in 96-well U-bottom suspension culture plates (Greiner bio-one). Harvested transfected cells were resuspended in Stain Buffer with FBS and were added at 50 μl per well to the antibodies. Cells were incubated at 4° C. in the dark for 30 min and were washed twice. 0.5 μg secondary antibody Goat F(ab′)2 Anti-Human IgG-FITC (Beckman Coulter, #732598) or Goat F(ab′)2 Anti-Human kappa-PE (Southern Biotech, #206209), respectively, in combination with 0.5 μg 7-AAD per well was added in 100 μl Stain Buffer with FBS. Cells were incubated at 4° C. in the dark for 15 min and were washed twice. For measurement, cells were resuspended in 200 μl Stain Buffer with FBS. Cells were measured using the MACSQuant (Miltenyi Biotec) or LSRII (BD) flow cytometer, respectively. Further data analyses were performed using the FlowJo software (Tree Star, Inc.).

| % antibody positive transfected cells | Binder |
| --- | --- |
| 95% | B1 |
| 87.7% | B2 |
| 93.3% | B3 |

molecular target: T3, human CD3ε and CD3δ co-expressed on HEK293F cells (human, UniProt P07766 23-207; P04234 22-171); assay: flow cytometry, transfected HEK293F
T3 construct: also called huCD3ε/δ (transfected cells); huCD3e + huCD3d
Protocol: as §2, §3

| % antibody positive transfected cells | Binder |
| --- | --- |
| 97% | B1 |
| 91.7% | B2 |
| 93% | B3 |

molecular target: T4, human CD3 (TCR complex) on primary human T cells or Jurkat cells (human, UniProt P07766 23-207); assay: flow cytometry, primary human T cells
T4 construct: on the cells it stands in the whole TCR/CD3 complex; also called Jurkat E6-1 (expressing human TCR)
Protocol: The binding capacity of the CD3-Fabs was determined by flow cytometry. Primary human T cells were used as target cells. Therefore, peripheral blood mononuclear cells (PBMCs) were isolated from 200 ml peripheral blood of healthy donors treated with EDTA by Ficoll density centrifugation. 15 ml Histopaque (Sigma-Aldrich) was preloaded on a 50 ml Leucosep-Tube (Greiner bio-one). Blood was diluted with autoMACS Rinsing Buffer+1% BSA (Miltenyi Biotec) and loaded on the membrane of a total of ten prepared tubes. Tubes were centrifuged without brake for 10 min at 1000 xg. PBMCs were collected and washed with autoMACS Rinsing Buffer+1% BSA three times. Finally, PBMCs were resuspended in autoMACS Running Buffer (Miltenyi Biotec) for isolation of T lymphocytes by autoMACSpro technology using the Pan T Cell isolation Kit (Miltenyi Biotec) according to manufacturer's instructions. Purity of separated T cells was analyzed by MACSQuant flow cytometry using the human 7-Color Immunophenotyping Kit (Miltenyi Biotec). Isolated T cells were resuspended in Stain Buffer with FBS (BD Pharmingen) and 1E5 cells in 100 μl per well were seeded in 96-well U-bottom suspension culture plates (Greiner bio-one). Fab antibodies were diluted 1:3 in serial in PBS (Invitrogen) and 5 μl each were added to the cells at a final maximum concentration of 30000 ng/ml. The assay was incubated for 45 min at 4° C. Cells were washed twice with Stain Buffer with FBS and 1 μg secondary antibody Goat F(ab′)2 Anti-Human kappa-FITC (Beckman Coulter, #732621) per well was added in 100 μl Stain Buffer with FBS per well. The assay was incubated for 20 min at 4° C. and washed twice afterwards. Cells were resuspended in 150 μl Stain Buffer with FBS per well and were measured using the MACSQuant (Miltenyi Biotec) or LSRII (BD) flow cytometer. Further data analyses were performed using the FlowJo software (Tree Star, Inc.). Read out was percentage of cells positive for antibody binding. Cells treated only with the secondary but no primary antibody were used to set the gates. EC50 Curves were calculated by XLfit (Algorithm 205), EC50 values were calculated as inflection point of the slope (data are shown in table 6).

| EC50 | Binder |
| --- | --- |
| 1.7 nM | B1 |
| 18.7 nM | B2 |
| 14.3 nM | B3 |

molecular target: T1, human CD3ε/δ-Fc fusion protein (soluble …); assay: SPR Biacore, CD3εδ-Fc captured, Fab analyte
Protocol: Binding affinities of anti-CD3 binding Fabs or CODV-Fabs were measured by surface plasmon resonance (SPR) using a Biacore3000 instrument (GE Healthcare). Assay buffer was HBS-EP (BR-1001-88, GE Healthcare). Capture of CD3ε/δ-Fc fusion proteins was achieved using the human antibody capture kit (GE Healthcare). […] The CD3εδ-Fc fusions proteins were captured at 10 μl/min to approx. 70 RU to yield Rmax values of 30 RU. Binding kinetics with the anti-CD3 Fabs or CODV-Fabs was measured at 30 μl/min for 240 sec. and 600 sec. for association and dissociation phase, respectively. Twofold dilutions of Fabs from 3 to 400 nM in assay buffer were used. All Fab concentrations were run in duplicate together with duplicate buffer blanks for double referencing. Regeneration of the capture surface was performed with a 1 min injection of 3M MgCl2 solution at 30 μl/min. For data analysis the BIAevaluation software v.4.1 (GE Healthcare) was used. Data were fit globally using a 1:1 Langmuir model with mass transfer.

| Kd | koff | kon | Binder |
| --- | --- | --- | --- |
| 4.4 nM | 0.0011 s⁻¹ | 250000 M⁻¹ s⁻¹ | B1 |
| 41 nM | 0.0039 s⁻¹ | 93000 M⁻¹ s⁻¹ | B2 |
| 29 nM | 0.0049 s⁻¹ | 170000 M⁻¹ s⁻¹ | B3 |

molecular target: T5, human CD3δ expressed alone on HEK293F cells (human, UniProt P04234 22-171); assay: flow cytometry, HEK293F transfected with huCD3δ
T5 construct: entry includes the signal peptide; also called huCD3δ
T5 sequence (P04234 22-171 limits assumed, stated change not applied): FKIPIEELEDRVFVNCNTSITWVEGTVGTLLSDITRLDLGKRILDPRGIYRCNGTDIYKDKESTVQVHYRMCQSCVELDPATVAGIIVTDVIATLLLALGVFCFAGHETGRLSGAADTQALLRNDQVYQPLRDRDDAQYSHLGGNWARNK
Protocol: as §2
Cells were incubated on a shaker at 37° C. and 5% CO2. At day one to three after transfection cells were harvested and binding of antibodies was analyzed by flow cytometry.
as §3

| Binder | binding result |
| --- | --- |
| B1 | no binding (tested: <20% of binding of huCD3e + huCD3d) |
| B2 | no binding (tested: <20% of binding of huCD3e + huCD3d) |
| B3 | no binding (tested: <20% of binding of huCD3e + huCD3d) |

molecular target: T6, Macaca fascicularis CD123 Fc-fusion protein (Macaca fascicularis); assay: SPR Proteon XPR36, rat IgG captured, CD123-Fc analyte
T6 construct: also called cyno CD123-Fc
T6 sequence (chain, as listed by the source limits assumed): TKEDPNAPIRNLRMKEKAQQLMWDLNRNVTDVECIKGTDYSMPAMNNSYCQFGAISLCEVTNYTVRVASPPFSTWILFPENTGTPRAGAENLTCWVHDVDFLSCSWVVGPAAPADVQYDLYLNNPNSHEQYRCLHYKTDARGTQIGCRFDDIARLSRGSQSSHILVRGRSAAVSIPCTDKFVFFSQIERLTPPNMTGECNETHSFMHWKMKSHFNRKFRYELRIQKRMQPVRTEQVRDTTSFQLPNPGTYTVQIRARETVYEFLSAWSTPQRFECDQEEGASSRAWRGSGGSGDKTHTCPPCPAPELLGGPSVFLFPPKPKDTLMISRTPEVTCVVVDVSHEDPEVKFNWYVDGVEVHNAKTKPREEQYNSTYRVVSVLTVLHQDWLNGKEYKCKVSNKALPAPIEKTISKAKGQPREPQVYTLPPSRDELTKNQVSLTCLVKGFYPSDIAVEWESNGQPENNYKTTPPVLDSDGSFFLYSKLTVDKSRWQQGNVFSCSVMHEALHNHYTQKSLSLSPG
Protocol: (§4) Screening of anti-CD123 rat IgGs for binding affinities to human CD123 and cross-reactivities to cyno CD123 was performed with hybridoma supernatants using a Proteon XPR36 (Biorad) in a one-shot kinetics approach. A capture assay was established using a goat anti-rat IgG (112-005-071, Jackson Immuno Research). The capture antibody was coated on GLC chips (176-5011, Biorad) to approx. 8000 RU in the vertical direction using the amine coupling kit (176-2410, Biorad). […] Binding kinetics with human and cyno CD123-Fc fusion protein was measured at 100 μl/min in the horizontal direction with 120 sec. and 600 sec. for association and dissociation, respectively. The CD123-Fc proteins were used in twofold dilutions from 6 nM to 100 nM. PBSET buffer (176-2730, Biorad) was used as assay buffer. Regeneration was achieved by injection of 10 mM Glycine buffer pH 1.5 for 18 sec at 30 μl/min. Data processing and analysis was performed using ProteonManager software v3.0. Fitting of the sensorgrams was done with a 1:1 Langmuir model.

| Kd | Binder |
| --- | --- |
| 0.1 nM | B4 |
| 0.5 nM | B5 |
| 0.17 nM | B6 |
| 0.07 nM | B7 |

molecular target: T7, human CD123 Strep-II tagged Fc-fusion protein (human); assay: as above
T7 construct: also called human CD123-Fc; recombinant CD123
T7 sequence (chain, as listed by the source limits assumed): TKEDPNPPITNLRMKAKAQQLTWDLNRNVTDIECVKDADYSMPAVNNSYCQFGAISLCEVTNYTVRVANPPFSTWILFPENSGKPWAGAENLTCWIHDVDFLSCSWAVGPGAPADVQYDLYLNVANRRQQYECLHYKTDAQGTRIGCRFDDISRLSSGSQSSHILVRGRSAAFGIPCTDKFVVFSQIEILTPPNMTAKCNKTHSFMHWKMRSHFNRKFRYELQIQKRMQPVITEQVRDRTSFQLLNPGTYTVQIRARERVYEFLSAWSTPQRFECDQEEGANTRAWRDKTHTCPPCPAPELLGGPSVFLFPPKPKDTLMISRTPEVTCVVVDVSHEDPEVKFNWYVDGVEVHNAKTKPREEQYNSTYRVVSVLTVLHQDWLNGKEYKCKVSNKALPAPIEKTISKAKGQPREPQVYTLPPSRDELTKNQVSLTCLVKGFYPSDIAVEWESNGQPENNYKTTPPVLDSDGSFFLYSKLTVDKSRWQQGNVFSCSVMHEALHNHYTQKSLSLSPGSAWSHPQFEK
Protocol: as §4

| Kd | koff | kon | Binder |
| --- | --- | --- | --- |
| 0.01 nM | 6.2e-06 s⁻¹ | 470000 M⁻¹ s⁻¹ | B4 |
| 0.04 nM | 6.7e-06 s⁻¹ | 180000 M⁻¹ s⁻¹ | B5 |
| 0.19 nM | 0.00028 s⁻¹ | 1.5e+06 M⁻¹ s⁻¹ | B6 |
| 0.3 nM | 0.00032 s⁻¹ | 1e+06 M⁻¹ s⁻¹ | B7 |

molecular target: T8, human CD123 (IL3RA) on cells (human, UniProt P26951 19-378); assay: flow cytometry, CD123 transfected HEK293, hybridoma supernatant
T8 construct: also called CD123 transfected HEK293; THP-1
T8 sequence (P26951 19-378): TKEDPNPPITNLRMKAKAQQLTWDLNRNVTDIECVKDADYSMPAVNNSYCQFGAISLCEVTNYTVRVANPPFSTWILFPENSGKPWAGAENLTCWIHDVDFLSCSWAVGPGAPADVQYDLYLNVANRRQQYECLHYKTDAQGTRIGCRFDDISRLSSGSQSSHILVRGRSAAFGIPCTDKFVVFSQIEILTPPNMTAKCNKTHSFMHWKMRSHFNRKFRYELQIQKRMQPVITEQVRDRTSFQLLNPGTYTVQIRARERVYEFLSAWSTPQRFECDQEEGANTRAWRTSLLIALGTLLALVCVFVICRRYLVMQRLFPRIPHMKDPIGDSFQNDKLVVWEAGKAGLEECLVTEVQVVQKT
Protocol: Cells were resuspended in 200 μl Stain Buffer with FBS per well and were measured using the MACSQuant (Miltenyi Biotec) or LSRII (BD) flow cytometer. Further data analyses were performed using the FlowJo software (Tree Star, Inc.). Read out was percentage of cells positive for antibody binding. Cells treated only with the secondary but no primary antibody were used to set the gates. Curves were calculated by XLfit (Algorithm 205).

| EC50 | Binder |
| --- | --- |
| 0.4 ng/mL | B4 |
| 1.3 ng/mL | B5 |
| 1.2 ng/mL | B6 |
| 0.9 ng/mL | B7 |
